# Publication PMC10130975
# Target: human glycerol kinase (His-GK) (human) (UniProt P32189)
# Experiment: native gel or EMSA; native-PAGE without the denaturants of SDS-PAGE; purified His-GK ran at ~100 kDa, against ~55 kDa by 10% SDS-PAGE
substance,measurement,value
human glycerol kinase (His-GK) (from UniProt P32189 1-559) (enzyme),stoichiometry N,2
